Laboratory results: patent US20250152742A1, “COMPOSITIONS AND METHODS FOR NEUROLOGICAL DISEASES” (Trames Bio, Inc., priority 2022, published 2025)

System: engineered chimeric receptor SEQ ID NO: 33 and its mutants (human α7-nAChR ligand binding domain / human GlyRα1 ion pore domain) in Lenti-X 293T cells
Assay: YFP fluorescence quenching anion reporter plate reader assay (percent quench, EC50)
Format: cell-based
Details: for YFP fluorescence quenching using CNL001 (percent quench): receptor named in row; for YFP fluorescence quenching using Varenicline, 3 nM var: ligand Varenicline 3 nM; for YFP fluorescence quenching using Varenicline, 30 nM var: ligand Varenicline 30 nM; for YFP fluorescence quenching using Varenicline, 300 nM var: ligand Varenicline 300 nM; for YFP fluorescence quenching using Varenicline, 500 nM var: ligand Varenicline 500 nM; for YFP fluorescence quenching using Varenicline, 1 uM var: ligand Varenicline 1 uM
Excerpt: To screen these mutant LGICs for those having novel response profiles to ligands, an anion reporter assay was developed to assess the function of the LGICs in a high throughput format. In this assay, cells expressing a YFP reporter whose fluorescence is quenched in the presence of anion are transfected with DNA encoding the channel of interest. Upon exposure to ligand, channels that are activated will flux anion, resulting in a dose-dependent quench of the YFP that can be detected on a plate reader. The greater the quench signal (i.e., the more positive the value), the higher the ligand activity on the receptor is.
Lenti-X 293T cells (LX293T, Clontech) were maintained in DMEM containing 10% FBS and 1% penicillin/streptomycin (Invitrogen). […] Two days before assay, cells were split at a density of 20,000 cells/well in a 96-well tissue culture plate coated with poly-d lysine (Thermo Scientific). The next day, the cells were transiently transfected with 0.1 μg of DNA per well using standard Fugene protocol (Promega). On the day of assay, cells were washed 2 times in 1X extracellular solution (1X ECS: 140 mM NaCl, 5 mM KCl, 1 mM MgCl2, 2 mM CaCl2, 10 mM HEPES, 10 mM glucose, pH 7.2, mOsms 300). After the last wash, 100 μL of 1X ECS was added to the wells and the plate was incubated at 37° C. for 30 min. While incubating the plate, the drugs were diluted to a 2X concentration in 1X ECS-Nal (same components as 1X ECS except the 140 mM NaCl was replaced by 140 mM Nal). The plates were then read on a Flexstation3 (Molecular Devices). Each well, 8 wells at a time, of the plate is read for 2 min using a Flexstation3 (Molecular Devices) as follows: 1) a baseline YFP fluorescence is read for 17 sec, 2) 100 μL of ligand is added, and 3) the changes in YFP fluorescence are then measured every 1.3 sec for 1 minute and 43 seconds. The percent quench is calculated from the average fluorescence of the last 10 seconds of the read divided by the baseline average of the first 15 seconds prior to the ligand addition.
FIGS. 1A-1J provide heat maps of the percent quench of YFP fluorescence following stimulation by various doses of either acetylcholine or the non-native ligand as indicated in the Figures. CODA71 (SEQ ID NO: 33) was used as a control, and CODA75 (SEQ ID NO: 29, a non-responding chimeric engineered receptor) was used as the negative control. Quenching of the fluorescence signal, as indicated by blue shaded cells, indicate the level of engineered receptor activation by the non-native ligand at that concentration.

B1: CODA334: engineered receptor: L131Q in SEQ ID NO: 33 (protein)
chain: MRCSPGGVWLALAASLLHVSLQGEFQRKLYKELVKNYNPLERPVANDSQPLTVYFSLSLLQIMDVDEKNQVLTTNIWLQMSWTDHYLQWNVSEYPGVKTVRFPDGQIWKPDILLYNSADERFDATFHTNVQVNSSGHCQYLPPGIFKSSCPMDLKNFPMDVQTCKLKFGSWSYGGWSLDLQMQEADISGYIPNGEWDLVGIPGKRSERFYECCKEPYPDVTFTVTMRRRMGYYLIQMYIPSLLIVILSWISFWINMDAAPARVGLGITTVLTMTTQSSGSRASLPKVSYVKAIDIWMAVCLLFVFSALLEYAAVNFVSRQHKELLRFRRKRRHHKSPMLNLFQEDEAGEGRFNFSAYGMGPACLQAKDGISVKGANNSNTTNPPPAPSKSPEEMRKLFIQRAKKIDKISRIGFPMAFLIFNMFYWIIYKIVRREDVHNQ
modifications: synthetic sequence of chimeric LGIC
YFP fluorescence quenching using CNL001 (percent quench) (1 nM CNL001, first column so headed): 76.165%
YFP fluorescence quenching using CNL001 (percent quench) (1 nM CNL001, second column so headed): 78.463%
YFP fluorescence quenching using TC-5619/Bradanicline (percent quench) (3 nM brd (TC-5619/Bradanicline)): 41.92%
YFP fluorescence quenching using CNL001 (percent quench) (10 nM CNL001, first column so headed): 79.349%
YFP fluorescence quenching using CNL001 (percent quench) (10 nM CNL001, second column so headed): 78.238%
YFP fluorescence quenching using TC-6683 (percent quench) (30 nM TC-6683): −17.99%
YFP fluorescence quenching using TC-5619/Bradanicline (percent quench) (30 nM brd (TC-5619/Bradanicline)): 63.65%
YFP fluorescence quenching using CNL001 (percent quench) (50 nM CNL001, first column so headed): 80.221%
YFP fluorescence quenching using CNL001 (percent quench) (50 nM CNL001, second column so headed): 81.789%
YFP fluorescence quenching using ABT-126 (percent quench) (50 nM abt (ABT-126)): 23.65%
YFP fluorescence quenching using CNL001 (percent quench) (100 nM CNL001, first column so headed): 82%
YFP fluorescence quenching using CNL001 (percent quench) (100 nM CNL001, second column so headed): 80.766%
YFP fluorescence quenching (percent quench) (100 nM CNL002): 49.9%
YFP fluorescence quenching using ABT-126 (percent quench) (100 nM abt (ABT-126)): 61.83%
YFP fluorescence quenching using AZD-0328 (percent quench) (100 nM azd0328): 80.55%
YFP fluorescence quenching using TC-6683 (percent quench) (300 nM TC-6683): −23.26%
YFP fluorescence quenching using ABT-126 (percent quench) (300 nM abt (ABT-126)): 76.44%
YFP fluorescence quenching using AZD-0328 (percent quench) (300 nM azd0328): 83.15%
YFP fluorescence quenching using TC-5619/Bradanicline (percent quench) (300 nM brd (TC-5619/Bradanicline)): 64.85%
YFP fluorescence quenching using CNL001 (percent quench) (1 uM CNL001, first column so headed): 81.707%
YFP fluorescence quenching using CNL001 (percent quench) (1 uM CNL001, second column so headed): 82.665%
YFP fluorescence quenching (percent quench) (1 uM CNL002): 80.72%
YFP fluorescence quenching using ABT-126 (percent quench) (1 uM abt (ABT-126)): 77.68%
YFP fluorescence quenching using TC-6683 (percent quench) (3 uM TC-6683): −18.84%
YFP fluorescence quenching (percent quench) (10 uM ach (acetylcholine)): −2.63%
YFP fluorescence quenching (percent quench) (30 uM CNL002): 80.97%
YFP fluorescence quenching using TC-6683 (percent quench) (30 uM TC-6683): −16.92%
YFP fluorescence quenching (percent quench) (30 uM ach (acetylcholine)): 30.06%
YFP fluorescence quenching using AZD-0328 (percent quench) (30 uM azd0328): 82.53%
YFP fluorescence quenching using TC-6683 (percent quench) (100 uM TC-6683): −15.59%
YFP fluorescence quenching (percent quench) (100 uM ach (acetylcholine)): 71.27%
YFP fluorescence quenching (percent quench) (1 mM ach (acetylcholine)): 79.66%
YFP fluorescence quenching (percent quench) (3 mM ach (acetylcholine)): 74.9%
YFP fluorescence quenching using Facinicline, 30 nM fac (ligand Facinicline 30 nM): 83.07
YFP fluorescence quenching using Facinicline, 100 nM fac (ligand Facinicline 100 nM): 85.36
YFP fluorescence quenching using Facinicline, 300 nM fac (ligand Facinicline 300 nM): 84.19
YFP fluorescence quenching using Facinicline, 30 uM fac (ligand Facinicline 30 uM): 82.75
YFP fluorescence quenching using TC-6987, 1 uM tc6987 (ligand TC-6987 1 uM): 74.1
YFP fluorescence quenching using TC-6987, 10 uM tc6987 (ligand TC-6987 10 uM): 81.7
YFP fluorescence quenching using TC-6987, 500 uM tc6987 (ligand TC-6987 500 uM): 80.18
YFP fluorescence quenching using Varenicline, 3 nM var (first column): −5.192
YFP fluorescence quenching using Varenicline, 3 nM var (second column): −4.327
YFP fluorescence quenching using Varenicline, 30 nM var (first column): −0.688
YFP fluorescence quenching using Varenicline, 30 nM var (second column): 0.672
YFP fluorescence quenching using Varenicline, 300 nM var (first column): 75.189
YFP fluorescence quenching using Varenicline, 300 nM var (second column): 74.923
YFP fluorescence quenching using Varenicline, 500 nM var (first column): 79.048
YFP fluorescence quenching using Varenicline, 500 nM var (second column): 80.337
YFP fluorescence quenching using Varenicline, 1 uM var (first column): 79.766
YFP fluorescence quenching using Varenicline, 1 uM var (second column): 76.836
